{
  "source": "paper PMC3650007",
  "about": "“Human Rotavirus VP6-Specific Antibodies Mediate Intracellular Neutralization by Binding to a Quaternary Structure in the Transcriptional Pore” (PLoS ONE, 2013)",
  "binders": {"B1": {"name": "RV6-26 Fab (Fab, V domains shown)", "VH": "EFQLVESGAEVKKPGASVKVSCKASGYSFTSYYVHWVREAPGEGLEWMGMINPSDGSTYYAQRFQPRVTMTRDTSTTTVFMEMSGLRSEDTAVYYCARGVVGATNEIDFWGQGTTVTVSS", "VL": "DIRLTQSPSSLSASVGDRVTITCRASQSISNYLNWYQKKPGQAPKLLIYAATSLQSGVPSRFSGSGSGTDFTLTISSVQPEDFATYYCQKTLRTWTFGQGTKVEIK"}},
  "target": "T1, VP6 fragment (VP6f), residues 147-339 (Rotavirus A, strain of the VP6 DNA …)",
  "T1 construct": "also called VP6 head domain construct",
  "T1 chain": "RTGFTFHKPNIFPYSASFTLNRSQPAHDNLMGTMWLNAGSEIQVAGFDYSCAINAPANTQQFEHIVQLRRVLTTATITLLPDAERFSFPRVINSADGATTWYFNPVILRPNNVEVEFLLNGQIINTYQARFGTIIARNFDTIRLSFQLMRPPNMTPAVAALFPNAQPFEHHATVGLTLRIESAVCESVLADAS",
  "experiment": "HDX-MS",
  "settings": "both partners purified",
  "data": [
    {"binder": "B1", "values": [
      {"measurement": "binding result", "value": "binds"}
    ]}
  ]
}
